Experimental data published in doi:10.1101/2024.09.22.614354 (bioRxiv, 2024).

How the values were obtained:
Test in all cases: fluorescence polarisation
Rb^P I703F = biological target: T1, Rb^P I703F (human, UniProt P06400 380-788, I703F)
T1 sequence: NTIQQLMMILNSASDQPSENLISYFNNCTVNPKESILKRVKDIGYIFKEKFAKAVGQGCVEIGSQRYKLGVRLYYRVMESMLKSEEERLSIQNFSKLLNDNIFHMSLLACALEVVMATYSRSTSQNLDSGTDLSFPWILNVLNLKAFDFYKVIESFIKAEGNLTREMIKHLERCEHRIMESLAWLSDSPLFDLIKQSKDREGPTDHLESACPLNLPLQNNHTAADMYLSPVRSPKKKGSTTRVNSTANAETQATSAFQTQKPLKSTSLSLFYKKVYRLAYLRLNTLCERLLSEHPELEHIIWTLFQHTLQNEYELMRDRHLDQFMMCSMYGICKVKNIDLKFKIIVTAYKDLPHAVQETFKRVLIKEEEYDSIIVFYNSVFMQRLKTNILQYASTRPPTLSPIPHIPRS

Rb^P S751Y = biological target: T2, Rb^P S751Y (human, UniProt P06400 380-788, S751Y)
T2 sequence: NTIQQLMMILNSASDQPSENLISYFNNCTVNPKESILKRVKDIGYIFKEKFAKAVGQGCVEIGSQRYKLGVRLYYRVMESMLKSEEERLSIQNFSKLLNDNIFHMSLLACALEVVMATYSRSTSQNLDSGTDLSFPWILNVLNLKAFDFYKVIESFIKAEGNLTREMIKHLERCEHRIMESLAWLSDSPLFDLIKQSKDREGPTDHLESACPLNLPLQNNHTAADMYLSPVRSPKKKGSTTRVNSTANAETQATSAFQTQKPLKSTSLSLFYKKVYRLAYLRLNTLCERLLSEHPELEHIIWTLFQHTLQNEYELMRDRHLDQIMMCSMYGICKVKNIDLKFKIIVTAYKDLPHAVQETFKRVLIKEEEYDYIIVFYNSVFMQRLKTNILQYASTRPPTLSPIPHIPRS

Rb^P E554K = biological target: T3, Rb^P E554K (human, UniProt P06400 380-788, E554K)
T3 sequence: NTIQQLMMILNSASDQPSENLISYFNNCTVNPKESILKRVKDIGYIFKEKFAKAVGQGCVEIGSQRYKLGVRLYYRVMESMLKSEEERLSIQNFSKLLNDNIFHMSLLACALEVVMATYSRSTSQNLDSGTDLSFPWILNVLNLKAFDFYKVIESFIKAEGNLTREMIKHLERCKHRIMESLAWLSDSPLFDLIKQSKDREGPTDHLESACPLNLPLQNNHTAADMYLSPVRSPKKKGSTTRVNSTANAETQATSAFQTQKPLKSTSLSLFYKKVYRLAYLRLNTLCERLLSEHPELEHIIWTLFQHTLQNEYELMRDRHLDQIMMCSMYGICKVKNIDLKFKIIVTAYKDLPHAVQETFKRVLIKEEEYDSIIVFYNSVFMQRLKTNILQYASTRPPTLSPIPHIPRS

[1] = biological target: T4, wild type Rb pocket domain (Rb^P) (human, UniProt P06400 380-788)
T4 sequence: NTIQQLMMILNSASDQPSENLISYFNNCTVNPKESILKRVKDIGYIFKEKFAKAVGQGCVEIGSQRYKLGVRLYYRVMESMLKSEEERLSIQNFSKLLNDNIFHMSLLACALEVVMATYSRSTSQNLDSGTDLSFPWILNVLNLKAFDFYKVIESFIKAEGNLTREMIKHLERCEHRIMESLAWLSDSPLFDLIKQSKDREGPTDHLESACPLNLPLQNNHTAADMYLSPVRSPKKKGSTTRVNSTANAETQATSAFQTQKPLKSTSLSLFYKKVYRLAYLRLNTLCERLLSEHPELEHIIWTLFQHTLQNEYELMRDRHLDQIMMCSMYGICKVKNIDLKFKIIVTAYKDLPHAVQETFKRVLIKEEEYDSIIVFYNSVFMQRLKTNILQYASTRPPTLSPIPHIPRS

Rb^P M704V = biological target: T5, Rb^P M704V (human, UniProt P06400 380-788, M704V)
T5 sequence: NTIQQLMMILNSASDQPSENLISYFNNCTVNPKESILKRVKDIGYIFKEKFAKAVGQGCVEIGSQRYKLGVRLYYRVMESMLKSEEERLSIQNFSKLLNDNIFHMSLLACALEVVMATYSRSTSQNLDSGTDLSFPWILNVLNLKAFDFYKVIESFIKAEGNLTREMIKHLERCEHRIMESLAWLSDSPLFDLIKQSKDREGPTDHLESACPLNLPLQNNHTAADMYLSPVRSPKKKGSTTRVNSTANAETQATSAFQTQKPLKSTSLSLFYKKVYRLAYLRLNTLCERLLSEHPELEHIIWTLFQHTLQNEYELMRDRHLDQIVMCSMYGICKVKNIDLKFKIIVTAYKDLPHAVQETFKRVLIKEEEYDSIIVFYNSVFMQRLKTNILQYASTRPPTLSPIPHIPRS

Binder: DLYCYEQLN (not fully specified; TMR fluorescent label (TMR-E7^LxCxE)) [TMR-E7^LxCxE (LxCxE peptide of the E7 oncoprotein from HPV, TMR-labeled)]
- Kd (Rb^P I703F): 53 nM
- Kd (Rb^P S751Y): 12 nM
- Kd (Rb^P E554K): 24 nM
- Kd [1]: 7 nM
- Kd (Rb^P M704V): 14 nM
